In patent US20140120555A1 (PIERRE FABRE MEDICAMENT, published 2014):

T1: Recombinant mouse FcγRIII [CD16], Ala31-Thr215 with C-terminal 10-His tag (mouse, UniProt P08508 31-215)
T1 construct: Soluble form bought from R&D Systems; also called m-FcγRIII
T1 sequence: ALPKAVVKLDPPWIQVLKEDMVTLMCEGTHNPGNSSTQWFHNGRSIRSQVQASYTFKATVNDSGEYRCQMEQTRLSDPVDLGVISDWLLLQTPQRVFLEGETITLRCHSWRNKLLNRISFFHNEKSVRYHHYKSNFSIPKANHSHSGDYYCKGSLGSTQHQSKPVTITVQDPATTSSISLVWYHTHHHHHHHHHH

T2: Recombinant mouse FcγRI [CD64], Gln25-Pro297 with C-terminal 6-His tag (mouse, UniProt P26151 25-297)
T2 construct: range 25-297; Soluble form bought from R&D Systems; also called m-FcγRI
T2 sequence: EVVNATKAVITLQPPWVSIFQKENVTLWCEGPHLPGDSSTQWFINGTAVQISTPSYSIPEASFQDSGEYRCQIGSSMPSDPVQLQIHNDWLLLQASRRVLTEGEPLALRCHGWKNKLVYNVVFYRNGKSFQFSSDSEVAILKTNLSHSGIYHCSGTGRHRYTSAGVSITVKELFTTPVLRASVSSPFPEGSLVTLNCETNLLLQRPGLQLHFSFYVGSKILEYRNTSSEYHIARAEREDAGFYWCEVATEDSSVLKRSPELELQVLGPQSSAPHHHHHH


How the values were obtained:
[1] = target: T1, Recombinant mouse FcγRIII [CD16], …; test: SPR (Biacore X), Mab on CM4 chip, m-FcγRIII as analyte, Langmuïr model
Method: (§1) 2017 RU of c515H7 Mab were immobilized using the amine coupling kit chemistry on the second flowcell (FC2) of a CM4 sensorchip. The first flowcell (FC1) activated by NHS and EDC mixture and des-activated by ethanolamine served as the reference surface to check and subtract the non specific interaction between the analyte (Fc gamma receptors) and the sensorchip matrix.
(§2) The kinetic experiments were carried out at 25° Celsius at a flow rate of 30 μl/min. The HBS-EP buffer was used either as the running buffer or for the preparation of analyte solutions. The analyte solutions were injected during 90 seconds (association phase) with a 90 seconds delay (dissociation phase). An injection of running buffer as analyte was used as a double reference. All the sensorgrams were corrected by this double reference sensorgram.
(§3) After each injection of the analyte, the sensorchip was regenerated by injection of 20 mM NaOH, 75 mM NaCl solution.

[2] = target: T3, Recombinant human FcγRIIIA variant V [CD16a], Gln17-Gln208 with C-terminal 6-His tag (human, UniProt P08637 17-208); test: SPR (Biacore X): h-FcγRIIIA injected over c515H7 Mab immobilized on a CM4 sensorchip; Langmuir model
T3 construct: range 17-208; 'variant V' is given without a position, so no substitution is written; also called h-FcγRIIIA
T3 sequence (P08637 other isoform, or with tags, fused parts or gaps mutant limits assumed, form in doubt): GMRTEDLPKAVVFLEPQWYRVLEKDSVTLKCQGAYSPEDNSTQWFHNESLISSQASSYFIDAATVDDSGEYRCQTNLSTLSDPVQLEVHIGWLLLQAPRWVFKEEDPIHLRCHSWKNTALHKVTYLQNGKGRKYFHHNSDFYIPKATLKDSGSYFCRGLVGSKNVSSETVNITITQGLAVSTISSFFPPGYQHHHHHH
Method: as §1, §2, §3

[3] = target: T1, Recombinant mouse FcγRIII [CD16], …; test: SPR (Biacore X): m-FcγRIII injected over c515H7 Mab immobilized on a CM4 sensorchip; heterogeneous ligand model, minor component (1%)
Method: as §1, §2, §3

[4] = target: T1, Recombinant mouse FcγRIII [CD16], …; test: SPR (Biacore X), Mab on CM4 chip, m-FcγRIII as analyte, Langmuïr model; lower of the two Langmuïr-fit values
Method: as §1, with “1964” for “2017”, “hz515H7VH1D76NVL2” for “c515H7”
as §2
(§4) Using the Langmuïr model the constant of dissociation was around 17 and 18 nM.

[5] = target: T1, Recombinant mouse FcγRIII [CD16], …; test: SPR (Biacore X), Mab on CM4 chip, m-FcγRIII as analyte, Langmuïr model; higher of the two Langmuïr-fit values
Method: as §1, with “1964” for “2017”, “hz515H7VH1D76NVL2” for “c515H7”
as §2, §4

[6] = target: T4, Recombinant human FcγRI [CD64], Gln16-Pro288 with C-terminal 6-His tag (human, UniProt P12314 16-288); test: SPR (Biacore X): h-FcγRI injected over hz515H7VH1D76NVL2 Mab immobilized on a CM4 sensorchip; heterogeneous ligand model, major component (99%)
T4 construct: range 16-288; Soluble form bought from R&D Systems; also called h-FcγRI
T4 sequence (P12314 other isoform, or with tags, fused parts or gaps limits assumed): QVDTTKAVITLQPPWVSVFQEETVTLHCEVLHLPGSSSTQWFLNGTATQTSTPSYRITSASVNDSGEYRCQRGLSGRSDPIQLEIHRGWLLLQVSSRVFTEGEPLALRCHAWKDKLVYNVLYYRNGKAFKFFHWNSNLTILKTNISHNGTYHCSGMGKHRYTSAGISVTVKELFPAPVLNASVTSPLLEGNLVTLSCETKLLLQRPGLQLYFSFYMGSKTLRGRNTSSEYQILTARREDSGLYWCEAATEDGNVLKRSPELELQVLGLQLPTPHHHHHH
Method: The experiments were carried out using a Biacore X device. The soluble forms of the four Fc […]gamma receptors used in this study were purchased from R&D Systems: […]

[7] = target: T2, Recombinant mouse FcγRI [CD64], …; test: SPR (Biacore X): m-FcγRI injected over hz515H7VH1D76NVL2 Mab immobilized on a CM4 sensorchip; heterogeneous ligand model, major component (82%)
Method: as §1, with “1964” for “2017”, “hz515H7VH1D76NVL2” for “c515H7”
as §2
After each injection of the analyte, the sensorchip was regenerated by injection of either 20 mM NaOH solution after h-FcγRI and m-FcγRIII or 10 mM NaOH after h-FcγRIIIA and m-FcγRI.

[8] = target: T3, Recombinant human FcγRIIIA variant V …; test: SPR (Biacore X): h-FcγRIIIA injected over hz515H7VH1D76NVL2 Mab immobilized on a CM4 sensorchip; heterogeneous ligand model, major component (79%)
Method: as §1, with “1964” for “2017”, “hz515H7VH1D76NVL2” for “c515H7”
as §2
Sensorgrams obtained with h-FcγRIIIA [FIG. 16] were clearly not fitted by the Langmuïr model (Chi2/Rmax>20%). […] According to this model, the hz515H7VH1D76NVL2 Mab Fc domain may be regarded as a mixture of two components. […] According to the literature, the heterogeneity observed with h-FcγRIIIA was probably linked to the glycosylation heterogeneity on the Mab Fc domain.

Kd [1] | Kd [2] | koff [2] | kon [2] | Kd [3] | koff [3] | kon [3] | Kd [4] | Kd [5] | Kd [6] | koff [6] | kon [6] | Kd [7] | koff [7] | kon [7] | Kd [8] | koff [8] | kon [8] | Binder
~20 nM | 63.8 nM | 0.0263 s⁻¹ | 412000 M⁻¹ s⁻¹ | 67 nM | 0.0024 s⁻¹ | 40000 M⁻¹ s⁻¹ |  |  |  |  |  |  |  |  |  |  |  | chimeric antibody c515H7 (antibody, human IgG1, kappa, Human IgG1/kappa constant domains; also called c515H7 Mab; chimeric 515H7) heavy: not shown light: DIVMSQSPSSLAVSAGEKVTMSCKSSQSLFNSRTRKNYLAWYQQKPGQSPKLLIYWASARDSGVPARFTGSGSETYFTLTISRVQAEDLAVYYCMQSFNLRTFGGGTKLEIKRTVAAPSVFIFPPSDEQLKSGTASVVCLLNNFYPREAKVQWKVDNALQSGNSQESVTEQDSKDSTYSLSSTLTLSKADYEKHKVYACEVTHQGLSSPVTKSFNRGEC
 |  |  |  |  |  |  | ~17 nM | ~18 nM | 0.69 nM | 0.0004 s⁻¹ | 579000 M⁻¹ s⁻¹ | 76.8 nM | 0.106 s⁻¹ | 1.38e+06 M⁻¹ s⁻¹ | 325 nM | 0.187 s⁻¹ | 575000 M⁻¹ s⁻¹ | humanized antibody Hz515H7 VH1 D76N VL2 (antibody, human IgG1, kappa, IgG1/kappa; also called hz515H7VL2; hz515H7-1) heavy: not shown light: DIVMTQSPSSLAVSLGERATMSCKSSQSLFNSRTRKNYLAWYQQKPGQSPKLLIYWASARDSGVPARFTGSGSETYFTLTISRVQAEDLAVYYCMQSFNLRTFGQGTKVEIKRTVAAPSVFIFPPSDEQLKSGTASVVCLLNNFYPREAKVQWKVDNALQSGNSQESVTEQDSKDSTYSLSSTLTLSKADYEKHKVYACEVTHQGLSSPVTKSFNRGEC
